Results reported in publication PMC3929782.

Target: Cy-5-labelled H2A/H2B dimer, wild type (UniProt P02281)
Assay: fluorescence polarisation

“RNF168 RING domain (residues 1–189) (from UniProt Q8IYW5 1-189) (domain or fragment)” was tested, and the Kd was 1000 nM.
